Results as given in publication PMC10122671, “IS21 family transposase cleaved donor complex traps two right-handed superhelical crossings”.

What was measured:
[1] = molecular target: Geobacillus stearothermophilus IstA (IS5376 transposase, IS21 family) (Geobacillus stearothermophilus); test: cryo-EM structure; IstA mixed 1:1.5 with the pre-cleaved right TIR DNA (5-nt 5' overhang), complex isolated by gel filtration; 50 mM HEPES pH 7.5, 150 mM NaCl, 5 mM MgCl2, 1 mM DTT, 0.005% Tween-20; 3.4 Å, C2 symmetry
IstA-MBP [2] = molecular target: T1, IstA-MBP (Geobacillus stearothermophilus, UniProt Q45618 1-400); test: fluorescence anisotropy; apparent Kd; Hill coefficient 3.6; 5 mM Mg2+; Fluorescence anisotropy: 50 mM HEPES pH 7.5, 150 mM NaCl, 5 mM MgCl2, 10% glycerol, 1 mM beta-mercaptoethanol, 0.1 mg/ml BSA, 5 nM DNA, 37 °C, 5 min; settings: protein: recombinant; tags: C-terminal TEV-cleavable MBP-His6; label: 5'-FAM on strand 1; blunt
T1 sequence: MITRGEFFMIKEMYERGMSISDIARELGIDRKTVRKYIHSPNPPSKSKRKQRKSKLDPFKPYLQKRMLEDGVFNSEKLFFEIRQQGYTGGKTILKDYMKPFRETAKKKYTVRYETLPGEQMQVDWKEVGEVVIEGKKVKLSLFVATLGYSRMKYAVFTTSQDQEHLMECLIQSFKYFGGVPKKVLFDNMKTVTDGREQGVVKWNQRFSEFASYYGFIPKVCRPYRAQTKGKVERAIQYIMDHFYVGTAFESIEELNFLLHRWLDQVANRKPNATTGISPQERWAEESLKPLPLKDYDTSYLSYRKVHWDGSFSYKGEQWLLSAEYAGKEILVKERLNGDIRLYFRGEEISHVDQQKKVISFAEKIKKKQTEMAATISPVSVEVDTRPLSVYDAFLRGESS

IstA-MBP [3] = molecular target: T1, IstA-MBP; test: fluorescence anisotropy; apparent Kd; Hill coefficient 1.2; 5 mM Mg2+; Fluorescence anisotropy: 50 mM HEPES pH 7.5, 150 mM NaCl, 5 mM MgCl2, 10% glycerol, 1 mM beta-mercaptoethanol, 0.1 mg/ml BSA, 5 nM DNA, 37 °C, 5 min; settings: protein: recombinant; tags: C-terminal TEV-cleavable MBP-His6; label: 5'-FAM on strand 1; blunt
IstA-MBP [4] = molecular target: T1, IstA-MBP; test: fluorescence anisotropy; apparent Kd; Hill coefficient 1.5; 5 mM Mg2+; Fluorescence anisotropy: 50 mM HEPES pH 7.5, 150 mM NaCl, 5 mM MgCl2, 10% glycerol, 1 mM beta-mercaptoethanol, 0.1 mg/ml BSA, 5 nM DNA, 37 °C, 5 min; settings: protein: recombinant; tags: C-terminal TEV-cleavable MBP-His6; label: 5'-FAM on strand 1; blunt
IstA-MBP [5] = molecular target: T1, IstA-MBP; test: fluorescence anisotropy; apparent Kd; Hill coefficient 2.2; 5 mM Mg2+; Fluorescence anisotropy: 50 mM HEPES pH 7.5, 150 mM NaCl, 5 mM MgCl2, 10% glycerol, 1 mM beta-mercaptoethanol, 0.1 mg/ml BSA, 5 nM DNA, 37 °C, 5 min; settings: protein: recombinant; tags: C-terminal TEV-cleavable MBP-His6; label: 5'-FAM on strand 1; blunt
IstA = molecular target: T2, IstA (Geobacillus stearothermophilus, UniProt Q45618 1-400); test: cryo-EM structure (3.4 A); 5 mM Mg2+; IstA tetramer with two DNA ends; Fluorescence anisotropy: 50 mM HEPES pH 7.5, 150 mM NaCl, 5 mM MgCl2, 10% glycerol, 1 mM beta-mercaptoethanol, 0.1 mg/ml BSA, 5 nM DNA, 37 °C, 5 min; settings: protein: recombinant; tags: MBP-His6 tag removed by TEV; 5' overhang 5 nt on strand 2; two duplex copies per tetramer
T2 sequence: T1 sequence

Geobacillus stearothermophilus IstA (IS5376 transposase, IS21 family) (enzyme)
stoichiometry N [1]: 4

B1: R1-R2 (pre-cleaved full right TIR) (dsDNA)
DNA 1: CCTTCTGGGGAATTTTAAACCGGCGATTTTGGGGAAAAAATAATCGGCCTTGACA
DNA 2: TGTCAAGGCCGATTATTTTTTCCCCAAAATCGCCGGTTTAAAATTCCCCAGAAGG
Kd (IstA-MBP [2]): 125 nM

B2: R1 (27 bp right TIR) (dsDNA)
DNA 1: TTGGGGAAAAAATAATCGGCCTTGACA
DNA 2: TGTCAAGGCCGATTATTTTTTCCCCAA
Kd (IstA-MBP [3]): 176 nM

B3: Rd60 (dsDNA)
DNA 1: TGCTTGCGATGATCCGACGTGTTAGCCACGCTGACTAGTTATGCCATGCCTCCCTTCAGG
DNA 2: CCTGAAGGGAGGCATGGCATAACTAGTCAGCGTGGCTAACACGTCGGATCATCGCAAGCA
Kd (IstA-MBP [4]): 191 nM

B4: Rd27 (dsDNA)
DNA 1: TGCTAACACGTCGGATCATCGCAAGCA
DNA 2: TGCTTGCGATGATCCGACGTGTTAGCA
Kd (IstA-MBP [5]): 121 nM

B5: Pre-cleaved right TIR with 5 nt 5' overhang (dsDNA)
DNA 1: B1 DNA 1
DNA 2: ATTCATGTCAAGGCCGATTATTTTTTCCCCAAAATCGCCGGTTTAAAATTCCCCAGAAGG
binding result (IstA): binds
